Columns and labels:
[1] = molecular target: alpha-synuclein, wild-type full-length human (140 amino acids)
[2] = molecular target: T1, Ac-YVAD-AMC (model substrate, from Enzo, Inc.)
T1 chain: YVAD

B1: caspase-1 (ICE; interleukin-1-beta converting enzyme), purified, activated (protein)
chain: NPAMPTSSGSEGNVKLCSLEEAQRIWKQKSAEIYPIMDKSSRTRLALIICNEEFDSIPRRTGAEVDITGMTMLLQNLGYSVDVKKNLTASDMTTELEAFAHRPEHKTSDSTFLVFMSHGIREGICGKKHSEQVPDILQLNAIFNMLNTKNCPSLKDKPKVIIIQACRGDSPGVVWFKDSVGVSGNLSLPTTEEFEDDAIKKAHIEKDFIAFCSSTPDNVSWRHPTMGSVFIGRLIEHMQEYACSCDVEEIFRKVRFSFEQPDGRAQMPTTERVTLTRCFYLFPGH
For B1, the “Western blot of ICE digested alpha-synuclein with increasing amounts of ICE (2 to 12 µg)” value [1] was “Appearance of a smaller fragment of synuclein below 17 kD with intensity increasing with amount of ICE”, the “cleavage of alpha-synuclein in vitro (SDS-PAGE and western blot with anti-synuclein antibody)” value [1] was “Purified, activated caspase-1 does indeed cleave alpha-synuclein” and the “activity against a model substrate” value [2] was 110 µM/min/mg.

— patent US20160143985
